From PMC10482915, “Hornerin mediates phosphorylation of the polo-box domain in Plk1 by Chk1 to induce death in mitosis” (Cell Death and Differentiation, 2023)

Biological target: T1, His-Plk1 WT (human, UniProt P53350 1-603)
T1 construct: polo-like kinase 1 (Plk1), human; PCR product of the human Plk1 gene cloned into pET-28a; also called recombinant His-Plk1; His6-tagged Plk1 WT; source: E. coli BL21 DE3, purified (Ni2+-NTA-agarose)
Assay: pull-down; recombinant Chk1 incubated with recombinant His-Plk1, pulled down with Ni-beads; immunoblotting
Conditions: both partners purified

T1 sequence (P53350 whole entry): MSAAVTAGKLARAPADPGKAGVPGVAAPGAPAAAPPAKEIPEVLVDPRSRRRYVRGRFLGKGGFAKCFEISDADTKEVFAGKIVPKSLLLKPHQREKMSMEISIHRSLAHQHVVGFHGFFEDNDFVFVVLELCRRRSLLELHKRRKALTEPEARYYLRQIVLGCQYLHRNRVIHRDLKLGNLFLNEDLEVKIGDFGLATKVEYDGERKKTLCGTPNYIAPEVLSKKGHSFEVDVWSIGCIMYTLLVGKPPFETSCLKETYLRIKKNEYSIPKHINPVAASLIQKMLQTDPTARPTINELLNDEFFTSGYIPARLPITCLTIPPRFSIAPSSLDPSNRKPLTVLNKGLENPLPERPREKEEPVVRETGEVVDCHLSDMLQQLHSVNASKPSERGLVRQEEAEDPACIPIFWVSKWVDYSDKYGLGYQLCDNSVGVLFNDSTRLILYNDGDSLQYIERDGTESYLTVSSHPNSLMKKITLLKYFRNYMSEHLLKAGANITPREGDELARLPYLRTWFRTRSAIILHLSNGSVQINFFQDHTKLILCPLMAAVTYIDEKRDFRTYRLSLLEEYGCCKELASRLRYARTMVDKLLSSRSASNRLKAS

binding result: binds
B1: recombinant Chk1 (enzyme, human, UniProt O14757 1-476, looked up)
chain: MAVPFVEDWDLVQTLGEGAYGEVQLAVNRVTEEAVAVKIVDMKRAVDCPENIKKEICINKMLNHENVVKFYGHRREGNIQYLFLEYCSGGELFDRIEPDIGMPEPDAQRFFHQLMAGVVYLHGIGITHRDIKPENLLLDERDNLKISDFGLATVFRYNNRERLLNKMCGTLPYVAPELLKRREFHAEPVDVWSCGIVLTAMLAGELPWDQPSDSCQEYSDWKEKKTYLNPWKKIDSAPLALLHKILVENPSARITIPDIKKDRWYNKPLKKGAKRPRVTSGGVSESPSGFSKHIQSNLDFSPVNSASSEENVKYSSSQPEPRTGLSLWDTSPSYIDKLVQGISFSQPTCPDHMLLNSQLLGTPGSSQNPWQRLVKRMTRFFTKLDADKSYQCLKETCEKLGYQWKKSCMNQVTISTTDRRNNKLIFKVNLLEMDDKILVDFRLSKGDGLEFKRHFLKIKGKLIDIVSSQKIWLPAT
notes: checkpoint kinase 1 (Chk1), human recombinant kinase; the SignalChem kinase is named only for the kinase assay; also called human recombinant Chk1 kinase; checkpoint kinase 1; source: bought: SignalChem (named for the kinase assay)
